The text below walks through data of article PMC7367873, “Dissecting the sequence determinants for dephosphorylation by the catalytic subunits of phosphatases PP1 and PP2A” (Nature Communications, 2020).

The chains are these.
B1: WBP11 (protein, UniProt Q9Y2W2 1-641, looked up)
WW domain-binding protein 11: MGRRSTSSTKSGKFMNPTDQARKEARKRELKKNKKQRMMVRAAVLKMKDPKQIIRDMEKLDEMEFNPVQQPQLNEKVLKDKRKKLRETFERILRLYEKENPDIYKELRKLEVEYEQKRAQLSQYFDAVKNAQHVEVESIPLPDMPHAPSNILIQDIPLPGAQPPSILKKTSAYGPPTRAVSILPLLGHGVPRLPPGRKPPGPPPGPPPPQVVQMYGRKVGFALDLPPRRRDEDMLYSPELAQRGHDDDVSSTSEDDGYPEDMDQDKHDDSTDDSDTDKSDGESDGDEFVHRDNGERDNNEEKKSGLSVRFADMPGKSRKKKKNMKELTPLQAMMLRMAGQEIPEEGREVEEFSEDDDEDDSDDSEAEKQSQKQHKEESHSDGTSTASSQQQAPPQSVPPSQIQAPPMPGPPPLGPPPAPPLRPPGPPTGLPPGPPPGAPPFLRPPGMPGLRGPLPRLLPPGPPPGRPPGPPPGPPPGLPPGPPPRGPPPRLPPPAPPGIPPPRPGMMRPPLVPPLGPAPPGLFPPAPLPNPGVLSAPPNLIQRPKADDTSAATIEKKATATISAKPQITNPKAEITRFVPTALRVRRENKGATAAPQRKSEDDSAVPLAKAAPKSGPSVPVSVQTKDDVYEAFMKEMEGLL
B2: CPS1 (protein, UniProt P31327 39-1500, looked up)
Carbamoyl-phosphate synthase …: LSVKAQTAHIVLEDGTKMKGYSFGHPSSVAGEVVFNTGLGGYPEAITDPAYKGQILTMANPIIGNGGAPDTTALDELGLSKYLESNGIKVSGLLVLDYSKDYNHWLATKSLGQWLQEEKVPAIYGVDTRMLTKIIRDKGTMLGKIEFEGQPVDFVDPNKQNLIAEVSTKDVKVYGKGNPTKVVAVDCGIKNNVIRLLVKRGAEVHLVPWNHDFTKMEYDGILIAGGPGNPALAEPLIQNVRKILESDRKEPLFGISTGNLITGLAAGAKTYKMSMANRGQNQPVLNITNKQAFITAQNHGYALDNTLPAGWKPLFVNVNDQTNEGIMHESKPFFAVQFHPEVTPGPIDTEYLFDSFFSLIKKGKATTITSVLPKPALVASRVEVSKVLILGSGGLSIGQAGEFDYSGSQAVKAMKEENVKTVLMNPNIASVQTNEVGLKQADTVYFLPITPQFVTEVIKAEQPDGLILGMGGQTALNCGVELFKRGVLKEYGVKVLGTSVESIMATEDRQLFSDKLNEINEKIAPSFAVESIEDALKAADTIGYPVMIRSAYALGGLGSGICPNRETLMDLSTKAFAMTNQILVEKSVTGWKEIEYEVVRDADDNCVTVCNMENVDAMGVHTGDSVVVAPAQTLSNAEFQMLRRTSINVVRHLGIVGECNIQFALHPTSMEYCIIEVNARLSRSSALASKATGYPLAFIAAKIALGIPLPEIKNVVSGKTSACFEPSLDYMVTKIPRWDLDRFHGTSSRIGSSMKSVGEVMAIGRTFEESFQKALRMCHPSIEGFTPRLPMNKEWPSNLDLRKELSEPSSTRIYAIAKAIDDNMSLDEIEKLTYIDKWFLYKMRDILNMEKTLKGLNSESMTEETLKRAKEIGFSDKQISKCLGLTEAQTRELRLKKNIHPWVKQIDTLAAEYPSVTNYLYVTYNGQEHDVNFDDHGMMVLGCGPYHIGSSVEFDWCAVSSIRTLRQLGKKTVVVNCNPETVSTDFDECDKLYFEELSLERILDIYHQEACGGCIISVGGQIPNNLAVPLYKNGVKIMGTSPLQIDRAEDRSIFSAVLDELKVAQAPWKAVNTLNEALEFAKSVDYPCLLRPSYVLSGSAMNVVFSEDEMKKFLEEATRVSQEHPVVLTKFVEGAREVEMDAVGKDGRVISHAISEHVEDAGVHSGDATLMLPTQTISQGAIEKVKDATRKIAKAFAISGPFNVQFLVKGNDVLVIECNLRASRSFPFVSKTLGVDFIDVATKVMIGENVDEKHLPTLDHPIIPADYVAIKAPMFSWPRLRDADPILRCEMASTGEVACFGEGIHTAFLKAMLSTGFKIPQKGILIGIQQSFRPRFLGVAEQLHNEGFKLFATEATSDWLNANNVPATPVAWPSQEGQNPSLSSIRKLIRDGSIDLVINLPNNNTKFVHDNYVIRRTAVDSGIPLLTNFQVTKLFAEAVQKSRKVDSKSLFHYRQYSAGKAA
B3: FLOT1 (protein, UniProt O75955 1-427, looked up)
Flotillin-1: MFFTCGPNEAMVVSGFCRSPPVMVAGGRVFVLPCIQQIQRISLNTLTLNVKSEKVYTRHGVPISVTGIAQVKIQGQNKEMLAAACQMFLGKTEAEIAHIALETLEGHQRAIMAHMTVEEIYKDRQKFSEQVFKVASSDLVNMGISVVSYTLKDIHDDQDYLHSLGKARTAQVQKDARIGEAEAKRDAGIREAKAKQEKVSAQYLSEIEMAKAQRDYELKKAAYDIEVNTRRAQADLAYQLQVAKTKQQIEEQRVQVQVVERAQQVAVQEQEIARREKELEARVRKPAEAERYKLERLAEAEKSQLIMQAEAEAASVRMRGEAEAFAIGARARAEAEQMAKKAEAFQLYQEAAQLDMLLEKLPQVAEEISGPLTSANKITLVSSGSGTMGAAKVTGEVLDILTRLPESVERLTGVSISQVNHKPLRTA
B4: BSG (protein, UniProt P35613 22-385, looked up)
Basigin: AAGFVQAPLSQQRWVGGSVELHCEAVGSPVPEIQWWFEGQGPNDTCSQLWDGARLDRVHIHATYHQHAASTISIDTLVEEDTGTYECRASNDPDRNHLTRAPRVKWVRAQAVVLVLEPGTVFTTVEDLGSKILLTCSLNDSATEVTGHRWLKGGVVLKEDALPGQKTEFKVDSDDQWGEYSCVFLPEPMGTANIQLHGPPRVKAVKSSEHINEGETAMLVCKSESVPPVTDWAWYKITDSEDKALMNGSESRFFVSSSQGRSELHIENLNMEADPGQYRCNGTSSKGSDQAIITLRVRSHLAALWPFLGIVAEVLVLVTIIFIYEKRRKPEDVLDDDDAGSAPLKSSGQHQNDKGKNVRQRNSS
B5: TUBB4A (protein, UniProt P04350 1-444, looked up)
Tubulin beta-4A chain: MREIVHLQAGQCGNQIGAKFWEVISDEHGIDPTGTYHGDSDLQLERINVYYNEATGGNYVPRAVLVDLEPGTMDSVRSGPFGQIFRPDNFVFGQSGAGNNWAKGHYTEGAELVDAVLDVVRKEAESCDCLQGFQLTHSLGGGTGSGMGTLLISKIREEFPDRIMNTFSVVPSPKVSDTVVEPYNATLSVHQLVENTDETYCIDNEALYDICFRTLKLTTPTYGDLNHLVSATMSGVTTCLRFPGQLNADLRKLAVNMVPFPRLHFFMPGFAPLTSRGSQQYRALTVPELTQQMFDAKNMMAACDPRHGRYLTVAAVFRGRMSMKEVDEQMLSVQSKNSSYFVEWIPNNVKTAVCDIPPRGLKMAATFIGNSTAIQELFKRISEQFTAMFRRKAFLHWYTGEGMDEMEFTEAESNMNDLVSEYQQYQDATAEEGEFEEEAEEEVA
B6: SRP14 (protein, UniProt P37108 2-136, looked up)
Signal recognition particle …: VLLESEQFLTELTRLFQKCRTSGSVYITLKKYDGRTKPIPKKGTVEGFEPADNKCLLRATDGKKKISTVVSSKEVNKFQMAYSNLLRANMDGLKKRDKKNKTKKTKAAAAAAAAAPAAAATAPTTAATTAATAAQ
B7: NFX1 (protein, UniProt Q12986 1-1120, looked up)
Transcriptional repressor …: MAEAPPVSGTFKFNTDAAEFIPQEKKNSGLNCGTQRRLDSNRIGRRNYSSPPPCHLSRQVPYDEISAVHQHSYHPSGSKPKSQQTSFQSSPCNKSPKSHGLQNQPWQKLRNEKHHIRVKKAQSLAEQTSDTAGLESSTRSESGTDLREHSPSESEKEVVGADPRGAKPKKATQFVYSYGRGPKVKGKLKCEWSNRTTPKPEDAGPESTKPVGVFHPDSSEASSRKGVLDGYGARRNEQRRYPQKRPPWEVEGARPRPGRNPPKQEGHRHTNAGHRNNMGPIPKDDLNERPAKSTCDSENLAVINKSSRRVDQEKCTVRRQDPQVVSPFSRGKQNHVLKNVETHTGSLIEQLTTEKYECMVCCELVRVTAPVWSCQSCYHVFHLNCIKKWARSPASQADGQSGWRCPACQNVSAHVPNTYTCFCGKVKNPEWSRNEIPHSCGEVCRKKQPGQDCPHSCNLLCHPGPCPPCPAFMTKTCECGRTRHTVRCGQAVSVHCSNPCENILNCGQHQCAELCHGGQCQPCQIILNQVCYCGSTSRDVLCGTDVGKSDGFGDFSCLKICGKDLKCGNHTCSQVCHPQPCQQCPRLPQLVRCCPCGQTPLSQLLELGSSSRKTCMDPVPSCGKVCGKPLPCGSLDFIHTCEKLCHEGDCGPCSRTSVISCRCSFRTKELPCTSLKSEDATFMCDKRCNKKRLCGRHKCNEICCVDKEHKCPLICGRKLRCGLHRCEEPCHRGNCQTCWQASFDELTCHCGASVIYPPVPCGTRPPECTQTCARVHECDHPVYHSCHSEEKCPPCTFLTQKWCMGKHEFRSNIPCHLVDISCGLPCSATLPCGMHKCQRLCHKGECLVDEPCKQPCTTPRADCGHPCMAPCHTSSPCPVTACKAKVELQCECGRRKEMVICSEASSTYQRIAAISMASKITDMQLGGSVEISKLITKKEVHQARLECDEECSALERKKRLAEAFHISEDSDPFNIRSSGSKFSDSLKEDARKDLKFVSDVEKEMETLVEAVNKGKNSKKSHSFPPMNRDHRRIIHDLAQVYGLESVSYDSEPKRNVVVTAIRGKSVCPPTTLTGVLEREMQARPPPPIPHHRHQSDKNPGSSNLQKITKEPIIDYFDVQD
B8: BAG2 (protein, UniProt O95816 2-211, looked up)
BAG family molecular …: AQAKINAKANEGRFCRSSSMADRSSRLLESLDQLELRVEALREAATAVEQEKEILLEMIHSIQNSQDMRQISDGEREELNLTANRLMGRTLTVEVSVETIRNPQQQESLKHATRIIDEVVNKFLDDLGNAKSHLMSLYSACSSEVPHGPVDQKFQSIVIGCALEDQKKIKRRLETLLRNIENSDKAIKLLEHSKGAGSKTLQQNAESRFN

One assay relates to GFP-14-3-3β and its binding proteins. The assay is described as follows: GFP-14-3-3β co-IP with LC-MS/MS label-free quantification, untreated versus PP1c-treated. The arrangement: species or system human. The note with it: PP1 vs untreated; LFQ intensities; 3 replicates each.
On to B1, for which the “Difference (log2), PP1 vs untreated” value was 0.3509 log2.

As to B2, the “Difference (log2), PP1 vs untreated” value is 0.4276 log2.

Regarding B3, the “Difference (log2), PP1 vs untreated” value worked out at 0.376 log2.

As to B4, the “Difference (log2), PP1 vs untreated” value worked out at 0.3522 log2.

As for B5, the “Difference (log2), PP1 vs untreated” value worked out at 0.4246 log2.

On to B6, for which the “Difference (log2), PP1 vs untreated” value is reported as 0.3437 log2.

As to B7, the “Difference (log2), PP1 vs untreated” value stood at 0.3965 log2.

The assay is the same for the next values; noted with them: log2 difference; pairwise comparison PP1 vs untreated, label-free quantification, 3 replicates each.
Turning to B8, the “Difference (log2), PP1 vs untreated” value was determined as 2.1096.

The test system of the next assay is GFP-14-3-3β. Put plainly: GFP-14-3-3β co-IP with LC-MS/MS, untreated GFP-14-3-3β versus GFP control (14-3-3 interactome). The format is binding, human. The note with it: log2 difference; pairwise comparison untreated vs GFP, label-free quantification, 3 replicates each.
On to B8, for which the “Difference (log2), untreated vs GFP” value is recorded as -1.564.

The assay is the same for the next values; noted with them: untreated vs GFP; LFQ intensities; 3 replicates each.
For B1, the “Difference (log2), untreated vs GFP” value was found to be 1.895 log2.

Turning to B2, the “Difference (log2), untreated vs GFP” value is on record as 0.419 log2.

As to B3, the “Difference (log2), untreated vs GFP” value is -0.5076 log2.

For the molecule B4, the “Difference (log2), untreated vs GFP” value came out at 0.07198 log2.

For B5, the “Difference (log2), untreated vs GFP” value was -1.261 log2.

On to B6, for which the “Difference (log2), untreated vs GFP” value was 1.473 log2.

For B7, the “Difference (log2), untreated vs GFP” value was 0.9482 log2.
